Publication PMC8163506, “A novel ATP dependent dimethylsulfoniopropionate lyase in bacteria that releases dimethyl sulfide and acryloyl-CoA” (eLife, 2021)

What was measured:
Experiment in all cases: DMS production by GC, nonlinear fit of initial rates
Assay type in all cases: biochemical, Psychrobacter sp.
[1] = substrate: CC(C)(COP(=O)(O)OP(=O)(O)OC[C@H]1O[C@@H](n2cnc3c(N)ncnc32)[C@H](O)[C@@H]1OP(=O)(O)O)[C@@H](O)C(=O)NCCC(=O)NCCS; conditions: co-substrates DMSP and ATP, pH 8.5, 40 °C
[2] = substrate: C[S+](C)CCC(=O)[O-]; conditions: co-substrates ATP and CoA, pH 8.5, 40 °C
[3] = substrate: Nc1ncnc2c1ncn2[C@@H]1O[C@H](COP(=O)(O)OP(=O)(O)OP(=O)(O)O)[C@@H](O)[C@H]1O; conditions: co-substrates DMSP and CoA, pH 8.5, 40 °C

B1: DddX (Psychrobacter sp.) (protein)
chain: LTGQIIEYTIKIQTIYTGNFKHKNGFLKMIERGIAMKKENLKILAKKAQTIAIVGANYRFATRVLLENLDKMDFTGTIYLVNPRYENIDGVRCYQSLLEIEDTIDVVVGLVNPQLMIQVASNASKINAKVLVIPGGGYGESGVEGQNIQNAILERAADSGMRIVGPNCMGYLNMHAQFTPYIGTLHRPLRPIKKGPVSIISQSGSVNDAFIASKLGISKIYSTGNEADVQMHDYLNLLAEDPETSVIILYIEAIRNHLSFLRALDLCSKNKKPVIAIKVGRTIKSAAVANAHSGALAGDYEIEKLFLEGHGVLFVEDIDQAVAVALLLSQPYLPTVNTVAALTVSGGQAGILLDLAEDYGVDFPDFSAVTNYEIASKLPELGGLSNPLDIWGKSSKDFSEVSNICLSSIVKDADIGIITVAIDAPIGQGDHEFDFTSIPAKDLASLRGNSDKPFLYFSHIQTEFDPRVESILDEAGIAVIQGSRNALVACRALFKYKEFLEKNNHTPIYSVEDLSIQKGLKLLHDNEGRKLLDESGFVSPREQVVTSLQEGVDYAESIGYPVVLKAQGLAHKTDVGGVALNIKSAAKLKKAWGKMEHLNSPYYLIQEMVTDGFETILAYRTDMNYGPVVIFGLGGIYTELFNEVVLAVPPITHKKAEQMVKSIPMLWKSIEGYRGNPALDLEALTASIVQMGETAMEKYEEIVEFEINPLSVRVKGVVALDVLASVKTTAAKEADAEEADVKKCSELV
notes: full length (2247 bp gene), pET-22b, C-terminal His tag, E. coli BL21(DE3); dimer in solution
With B1 as the protein, how does the Km [1] read?
The Km was 400 µM.

What about the Km [2] of the same protein?
The Km was 400 µM.

And the kcat [2]?
Its kcat is 0.7 s⁻¹.

And the Km [3]?
Its Km is 2500 µM.
